Experimental data as given in the supplement of paper PMC9170038.

Tested on: MS2 coat protein
Assay: apparent KD of MS2 coat protein; higher = weaker reporter binding
Conditions: Eterna round: R107
Procedure, shortened: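 Designed RNA switches were made by on-chip transcription from Illumina sequencing clusters and then titrated with SNAP-549-labelled MS2 coat protein. Twofold steps ran from 0.7 or 1.5 nM to 3 µM, each lasting 0.8–1.5 h early and 10–20 min late, in 100 mM Tris-HCl pH 7.5, 80 mM KCl, 4 mM MgCl2, without or with constant ligand. Apparent KD is the per-design median of normalised cluster binding-curve fits.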

[1] = input ligand: theophylline 20 uM
[2] = input ligand: tryptophan 2.4 mM
[3] = input ligand: theophylline 2 mM

Sequence | apparent KD of MS2 coat protein (input ligand: arginine 13.2 mM) [nM] | apparent KD of MS2 coat protein [1] [nM] | apparent KD of MS2 coat protein [2] [nM] | apparent KD of MS2 coat protein (input ligand: none) [nM] | apparent KD of MS2 coat protein [3] [nM]
UGAACAUGAGGAUCACCCAUGUAGUCAGAUACCAGACACUGCAUGGUCCCUUGGCAGCUGAAGAGCGUUUGCCAAAUAACGUUCA [Theo A SS t4] | 52 | 223 | 258 |  | 
AGUCUUAAUGGAAGGAGCGCAGUCAUAACAUGAGGAUCACCCAUGUCGAGGUGAGGGUCAUUGCAGGUAGGUCGCCAUACUAGAA [Same State - Arginine B (Freestyle 1)] | 131 | 222 | 125 | 153 | 186
AGAGUUAGACAAAAGUCUAGCUCACCAGAAGGAGCGUCCGAAAGGACAGGUAGGUCGCUGGUGCACGAGGAUCACCCGUGUUCCU [ArgAS 21 #OpenEnded #AlternativeMS2] | 57.9 | 90.2 | 67.3 | 80.6 | 118
AUAUUACAUGUUAUUAUACGGUAUACUGAUACCAGUGUUUCUAUUCACCCUUGGCAGCAGCAACAUGAGGAUCACCCAUGUAUUA [JR_SSTheophyA_Sub018] | 15.6 | 19 | 18 |  | 
GGACUAACCAGAAGGAGCGGCGCGCAGAAACUGCAAAAUCCUCCGCACGAGGAUCACCCGUGUCAGGUAGGUCGCUGGUUAGUCG [ArgBX 28] | 18 | 16.2 | 17.3 | 17.7 | 20.8
GGUGACUGCAUGUGGAAUUAAGGUAGGGAAGGAGCGCGGUAAGACGCAGGUAGGUCGCCCUACAUGAGGAUCACCCAUGUGGUGU [Beenmaer] | 114 | 135 | 36.5 | 121 | 500
ACAGGAAACGGAAGGAGCGGAAUUGCAACAUGAGGAUCACCCAUGUUGAUCGUGAGUUGCUUCCAGGUAGGUCGCCGUUACCUAA [Erorve] | 30.1 | 39.4 | 30.4 | 33.6 | 44.2
AGCACUGUGACGGCCGCCACUACAUAAAUUGGGUGGUCAGGUUCAUUACAUGAGGAUCACCCAUGUAGGACCGGGUCUCAGUGCA [Omei Trp Exc B A v8] | 15.9 | 20.6 | 7.33 | 11.4 | 13.3
GGUUGGUUUAUAUAUAGAUUGAUUACUGAAGGAGCGGGAAAUAACCCAGGUAGGUCGCAGAGAUCCACAUGAGGAUCACCCAUGU [!0.I] | 34.2 | 50.6 | 42.9 | 39.5 | 53
GCACCAGGUACGGAUACCAGCUAUAGGCCCAAUGGGCGACAUGAGGAUCACCCAUGUGAUGGCCCUUGGCAGCUGUACCUGGUGC [SSThB NP+V+V2 #9] | 148 | 193 | 218 |  | 
UACAUAUGCCGAAGGAGCGCGAGAUGCAAAGCAUCAUUCCUCACAUGAGGAUCACCCAUGUCGCAGGUAGGUCGCGGCAUAUGUU [ArgBX] | 46.7 | 45.1 | 32.4 | 32.5 | 40.3
UUCGUUUGCGGAAGGAGCGACGGACAUCGGUGAACGACGGACAUGAGGAUCACCCAUGUACGUCAGGUAGGUCGCCGCUAAGAGU [Enbiceri] | 13.7 | 13.8 | 13.8 | 13.2 | 15.2
UGUGCAUGAGUUGGAAAAGCUCAUGGGCAUCGAGGACCGGUACGGCCGCCACUCGGCUGUACAUGAGGAUCACCCAUGUCAGGGU [#1 Same State - Tryptophan A Attempt #23 (HarryS)] | 82 | 141 | 891 | 288 | 170
AGAUUCGACACGGCCGCCACUCGUGACAGAUUUCGCAGUGGUCAACAUGAGGAUCACCCAUGUCUGAGGACCGGGUGUUGAGUCU [XTryp B #9] | 36.4 | 39.3 |  |  | 41.1
CGGUUUGUGAUGGAUACCAGCAGAGAGAAUGUUUAUCCUGACAUGAGGAUCACCCAUGUGUGCCCUUGGCAGCUGUUGUGGGCUG [8.Y] | 42.4 | 102 | 55.8 |  | 
UUAUUUAUAAUGGAUACCAGUUUAAUGGCCGCAAAUCCUGACAUGAGGAUCACCCAUGUAAGCCCUUGGCAGCUGUUAUGGGUUU [XTheo B #24] | 34.2 | 47.3 | 35.2 |  | 
AGCUCAUAGAGUGAUACCAGACUACAUGAGGAUCACCCAUGUUUCUUUUGGUUAUCAUGUGUCCCUUGGCAGCACAAGAAGAGCA [JR_ExcTheophyB_Sub015] | 13.4 | 20.2 | 12.7 |  | 
GCUAGGUCUACGGCCGCCACUAGACAUGGGUAAGACAUGAGGAUCACCCAUGUACUACGAGUGCAUAGGACCGGGUAGACCUAGC [SSTB NP+V+V2 #19 +-Same Structure] | 111 | 277 |  |  | 516
AGAUUCGACACGGCCGCCACUCUACACGGAUUUCCGAGUGUCGAACAUGAGGAUCACCCAUGUGGGAGGACCGGGUGUUGAGUCU [XTryp B #11] | 164 | 704 |  |  | 944

Sequence | apparent KD of MS2 coat protein (input ligand: arginine 13.2 mM) [nM] | apparent KD of MS2 coat protein [1] [nM] | apparent KD of MS2 coat protein [2] [nM] | apparent KD of MS2 coat protein (input ligand: none) [nM] | apparent KD of MS2 coat protein [3] [nM]
AGCUCGCAUCCUCUAGCGUCAAAGACGCGUCGAGGACCGGUACGGCCGCCACUCGACUUGAGGAUCACCCAGGUCAAAGCGAGCA [TrypAX 13 #SwitchBubble #AlternativeMS2 #MS2Late #CuTurnoff] | 148 | 488 | 138 | 545 | 631
UUUGAUAUGACAGAUACCAGCGUGUUGUUGAACAUGAGGAUCACCCAUGUAGUGAUCAAGCGCCCUUGGCAGCUGGUGUGUUAGG [7.P] | 55.5 | 323 | 158 |  | 
GACAGAAACUGAAGGAGCGAGGUAAAACGGGAUGAGCAAACAUGAGGAUCACCCAUGUGGCCUCAGGUAGGUCGCAGAAAGAAAC [Exclusion Arginine B GF24] | 180 | 183 | 135 | 130 | 123
AAUAAUAAGGCGGCCGCCACUAAACAUGAGGAUCACCCAUGUCUCGAGCGCAUGCAUAAGGGAUGUAGGACCGGGCCAAUAAUAA [Exclusion - Tryptophan B (Freestyle 2)] | 22 | 32.6 | 23.6 | 29.7 | 27.9
UGUAUGUGAUCUGAUACCAGUCCAACUGGUAAAGCAUGAGGAUCACCCAUGCAAAAUUGGGACCCUUGGCAGCAGAUCGCAUACU | 167 | 213 | 267 | 264 | 28.1
ACUCGGUGUUUGUUGCUCCGAGUGUAUGAUACCAGUUAGUUUUAUGGCCCUUGGCAGCAUAGGACAUGAGGAUCACCCAUGUGUU [#02 SameState-TheophyllineA] | 27.3 | 41.1 | 34.9 |  | 
CUCUGGUGCUGAGUGAGUGUCGUGACUGAUACCAGAUGCCUUUACAUCCCUUGGCAGCAGUACAUGAGGAUCACCCAUGUAUUCC [Rireusrama] | 17.2 | 33.5 | 21.1 |  | 
AAUGGUGGAACGAAGUACAGGAGUACAAAUCGAGGACCGGUACGGCCGCCACUCGCGAAAGAACAUGAGGAUCACCCAUGUAAAA [theeternabot_exclusion_MS2_Trp_A_34] | 12.1 | 21.8 | 11.1 | 8.09 | 177
CUCCCGUGAGCGGCCGCCACUGGAGGCCUCGCGCGACAUGAGGAUCACCCAUGUUGGCCCGGCCUCAGGACCGGGUUCGCGCGAG [Same State - Tryptophan B Attempt #5 (HarryS)] | 7.94 | 12.4 | 7.41 | 9.67 | 9.89
UAAAUAAUCUGGGUGUAGGUAAUAACAGAUACCAGCCAGAUAACUGGCCCUUGGCAGCUGAAAACAUGAGGAUCACCCAUGUAAA [Mat - Same State Theophlline A - Mod of Eli - D19] | 58.3 | 129 | 57.4 | 80.6 | 84.6
GACGAGUAGACGGCCGCCACUAUGCUGCGCAGCCCUAGAAACGCACAUGAGGAUCACCCAUGUCUUAGGACCGGGUCGAACUUAA [theeternabot_sameState_MS2_Trp_B_48] | 47.7 | 107 |  |  | 96.2
ACUUUGUCGGGUGAUACCAGCCUCGGCACAUCUCGUGCCGAACAUGAGGAUCACCCAUGUGGCCCUUGGCAGCACAUGACAAAUC [Isredior] | 70.1 | 522 | 423 |  | 
GCCAUCGGCGGAAGCCGAUGGUAUACAGAAGGAGCGUAGGAAACUACAGGUAGGUCGCUGGACAUGAGGAUCACCCAUGUAAUAG [#27 Same State - Arginine A] | 22.2 | 26.7 | 21.8 | 15.2 | 17.5
AAACAUGAGGAUCACCCAUGUAUACUUAGACGAGGACCGGUACGGCCGCCACUCGAACUUCAAGAUUUGGCGGAAAAUGUAUGUA [JR_ExcTryptoA_Sub022] | 9.71 | 13 |  |  | 12.1
AUGUCGUUGAAUACAGCGGCAUGGAGUGAUACCAGAAUGAUCAAAUUCCCUUGGCAGCAUGACAUGAGGAUCACCCAUGUUCGAU [SSTheo A #15] | 34.3 | 61.3 | 77.5 |  | 
UGAUCCUACAGAGAUACCAGUGCCGCUGAGUGACCAGACACAUGAGGAUCACCCAUGUAACACCCUUGGCAGCUCAACUAGAGGG [Same State Theophylline B GF19] | 12.8 | 18.7 | 22 | 18.4 | 98.7
GGUGGCUCCAUCGAUACCAGCCACCACCGAUAGACCACAUGAGGAUCACCCAUGUUGGGUGGCCCUUGGCAGCGGUGAAGCUGCC [#1 Same State - Theophylline B Attempt #4 (HarryS)] | 44.1 | 416 | 657 | 304 | 34.5
UCAUAAGUACCGGUCCUCAGAUCCUCAUGACGAGGACCGGUACGGCCGCCACUCGAAACAUGAGGAUCACCCAUGUAAUAAUACU [Brourdmod15] | 22.5 | 37.9 |  |  | 31.9
ACAUGAGGAUCACCCAUGUGGCGAGUUGAUACCAGACCCGCACUAGUCCCUUGGCAGCAACUACGUGUGGGACACCCAUGUUAAG [qpqmullin] | 35.1 | 76.2 | 39.5 | 57.6 | 77.1
